Test results from patent US11732048B2, “Anti-axl antagonistic antibodies” (BERGEN TEKNOLOGIOVERFØRING AS, priority 2016, dated 2023).
Entries after “also recorded” stand apart in the source; their conditions may differ.

B1: H2L1: humanised variant of 10G5; presumably VH GH2 (SEQ ID NO: 2) with VL GL1 (SEQ ID NO: 3) (antibody, V domains shown)
VH: EVQLVESGGGLVQPGGSLRLSCAASGYSFTDFYINWVRQAPGKGLEWVARIFPGGDNTYYNEKFKGRFTLSADTSKSTAYLQMNSLRAEDTAVYYCARRGLYYAMDYWGQGTLVTVSS
VL: DIQMTQSPSSLSASVGDRVTITCRSSQSLVHSNGIPYLHWYQQKPGKAPKLLIYRVSNRFSGVPSRFSGSGSGTDFTLTISSLQPEDFATYYCSQGTHVPPTFGQGTKVEIK
modifications: hu10G5 VH(GH2); hu10G5 VL(GL1)
B2: rhGas6: recombinant human Gas6, Axl ligand (protein, listed as Homo sapiens)
chain: MAPSLSPGPAALRRAPQLLLLLLAAECALAALLPAREATQFLRPRQRRAFQVFEEAKQGHLERECVEELCSREEAREVFENDPETDYFYPRYLDCINKYGSPYTKNSGFATCVQNLPDQCTPNPCDRKGTQACQDLMGNFFCLCKAGWGGRLCDKDVNECSQENGGCLQICHNKPGSFHCSCHSGFELSSDGRTCQDIDECADSEACGEARCKNLPGSYSCLCDEGFAYSSQEKACRDVDECLQGRCEQVCVNSPGSYTCHCDGRGGLKLSQDMDTCEDILPCVPFSVAKSVKSLYLGRMFSGTPVIRLRFKRLQPTRLVAEFDFRTFDPEGILLFAGGHQDSTWIVLALRAGRLELQLRYNGVGRVTSSGPVINHGMWQTISVEELARNLVIKVNRDAVMKIAVAGDLFQPERGLYHLNLTVGGIPFHEKDLVQPINPRLDGCMRSWNWLNGEDTTIQETVKVNTRMQCFSVTERGSFYPGSGFAFYSLDYMRTPLDVGTESTWEVEVVAHIRPAADTGVLFALWAPDLRAVPLSVALVDYHSTKKLKKQLVVLAVEHTALALMEIKVCDGQEHVVTVSLRDGEATLEVDGTRGQSEVSAAQLQERLAVLERHLRSPVLTFAGGLPDVPVTSAPVTAFYRGCMTLEVNRRLLDLDEAAYKHSDITAHSCPPVEPAAA
modifications: (1)..(678) Homo sapiens Gas6

Columns and labels:
[1] = test system: Axl-dependent phosphorylation of Akt in LX2 cells; experiment: Axl-dependent AKT activation (pAkt Ser473 Western blot) in LX2 cells; format: cell-based, human
Experimental: Activation of Axl by Gas6 or cross-linking antibodies leads to phosphorylation of Akt.
Effect of Axl blocking antibodies in blocking Axl-dependent AKT activation in LX2 cells: • Cells were seeded in 12-well/plate (2×10^5 cells/well) in DMEM/10% FBS and allowed to attach and grow for >24 h. […] Axl activation was read out via phosphorylation of Akt on serine 473 (Western blot).
Protein Analysis: • Cells were lysed in RIPA buffer (150 mM NaCl, 1.0% IGEPAL® CA-630, 0.5% sodium deoxycholate, 0.1% SDS, 50 mM Tris, pH 8.0., SIGMA-ALDRICH) supplemented with antiproteases and anti-phosphatases (PMSF, sodium orthovanadate, protease inhibitor cocktail, and sodium fluoride), adjusted to 1× Laemmli loading buffer, sonicated, and centrifuged. 20-30 μl of the samples were subjected to 8% sodium dodecyl sulphate-polyacrylamide gel electrophoresis and then transferred to nitrocellulose membranes. Membranes were blocked in 5% BSA-FAF and washed in TBS Tween buffer and then developed with Pierce-ECL western blotting Substrate. • The antibodies used were p-AKT (p-Akt1/2/3 (C-11)), 1:200 in 5% BSA/TBS-T, o/n at 4° C.; AKT (1:200), followed by anti-mouse m-IgGκ BP-HRP (1:2000, 1 h, RT); anti-AKT (Akt1/2/3 (H-136)), 1:400, 1 h, RT followed by anti-rabbit-IgG-HRP (1:20000, 1 h, RT).
Activation of Axl is often achieved by treating Axl with its ligand, Gas6. […]

[2] = test system: Axl autophosphorylation (Tyrosine 866) in HeLa cells; experiment: Phospho-Axl (Y866) ELISA on HeLa cell lysates; format: cell-based, human
Experimental: To assess the level to which various Axl inhibitors reduce activation of Axl, as assessed through on of inhibition of Tyrosine 866 (Y866), one of Axl's known autophosphorylation sites (others include Y779 and Y821—see Oncotarget. 2014 October; 5(20): 9546-9563; doi: 10.18632/oncotarget.2542 and references cited therein).
Lysate Preparation • 1. Seed out HeLa cells in 14 10-cm dishes • a. 3 million cells per dish • 2. Incubate cells until attached • 3. Remove medium and wash cells with PBS • 4. Serum-starve the cells in 0.5% FBS media • a. 0.5% MEM for HeLa • b. O/N, at least 24 hour starvation • 5. Incubate cells with anti-Axl antibodies for 1 hour in 6 ml fresh 0.5% MEM. • a. BGB324 (CAS=1037624-75-1, UNII=0ICW2LX8AS): 0.2 uM • b. H2L1-Evitra*: 50 ug/ml • c. H2L1-Catalent*: 50 ug/ml • d. YW327.6S2: 50 ug/ml • *same sequence, different preparation • 6. Stimulate designated plates with 0.01 ug/ml rhGas6 in 6 ml of total media per 10-cm dish. • a. rhGas6 stimulation 0.01 ug/ml • 7. Set-up: Make each in 26 ml of 0.5% MEM • #1. Starvation • #2. rhGas6 stimulation (0.01 ug/ml) • #3. rhGas6 stimulation+pre-incubation with BGB324 0.2 uM • #4. rhGas6 stimulation+pre-incubation with H2L1-Evitra: 50 ug/ml • #5. rhGas6 stimulation+pre-incubation with H2L1-Catalent: 50 ug/ml • #6. rhGas6 stimulation+pre-incubation with YW327.6S2 50 ug/ml • #7. BGB324 0.2 uM alone • #8. H2L1-Evitra: 50 ug/ml alone • #9. H2L1-Catalent: 50 ug/ml alone • #10. YW327.6S2 50 ug/ml alone • 8. Stop reaction by lysing cells on ice • 9. Wash with cold PBS • 10. Add RIPA buffer (plus phosphatase inhibitors) • a. 100 ul/dish • 11. Scrape cells from dish • 12. Incubate 5-10 min on ice • 13. Spin down 13,000 rpm 5-10 min (cold) • 14. Supernatant transferred to fresh tube • 15. Measure phospho-protein by ELISA […]
Materials • Nunc MaxiSorp 96C plates • Tris-buffered saline (TBS) pH7.6 • Tween 20 (Sigma) • Wash buffer (TBS+0.05% Tween 20) • Fetal bovine serum (FBS) (Sigma) • Monoclonal mouse anti-HsAxl antibody 5F11, 3.6 mg/ml stock (BerGenBio). • Polyclonal rabbit anti-Hs-phospho-Y866 Axl antibody pAxl-Y866-16, 1.0 mg/ml (BerGenBio). […] For HeLa cells total protein concentration 1.5 mg/ml gives a strong signal. • Microplate reader with 450 nm absorbance. Absorbance at 595 nm (if available) should be subtracted to reduce background, but the effect is marginal. […]
Develop • Prepare fresh substrate solution: • 100 μl 10 mg/ml TMB stock solution • 10 μl 30% Hydrogen peroxide solution • 9.9 ml 100 mM Sodium acetate pH6 • Optional: test a small volume of the substrate solution by adding 1 μl leftover HRP-conjugated detection antibody mixture (step 12). […] Read plate on microplate reader with absorbance of 450 nm.

[3] = target: T1, Hs-Axl-Fc (immobilized Axl-Fc) (Homo sapiens, UniProt P30530); experiment: Biacore binding competition assays, two injections (Example 22); conditions: Gas6 10 μg/mL as first protein
T1 construct: Fc
Source text: Sensor chip with immobilised Axl: Hs-Axl-Fc (638.2 RU), Mm-Axl-Fc (334.5 RU), Rhe-Axl-Fc (350.2 RU)
In this experiment, a first antibody was allowed to bind to saturation. A second antibody was then applied and its ability to bind was monitored.
If the second antibody recognizes the same (or overlapping) epitope as the first antibody then binding will be blocked. If the second antibody recognizes a different epitope then binding will be detected at the same level as if no first antibody was present.
The ability of Gas6 to block antibody binding was also tested, using Gas6 at 10 μg/mL in HBS-EP.
All tests were performed in parallel on Hs-Axl-Fc, Mm-Axl-Fc and Rhe-Axl-Fc surfaces.
See FIG. 1 for a list of the pairs that were tested (in this list Contr-1 is incorrectly labeled YW367 instead of YW327.6S2var). All antibodies were at 25 μg/mL in HBS-EP.
• 2. Perform Biacore experiments at 25° C. • 3. In the instrument control software choose Direct Binding, and select settings for two injections as shown below. • 4. […] Store the template & the result file, start the analysis.

A549 tumours = experiment: A549 human NSCLC xenograft in mice (Examples 14, 16, 17, 18); format: in vivo, mouse; conditions: SCID mice, 30 mg/kg i.p. twice weekly, after two weeks of treatment, versus control (SYNAGIS)
Source text: SCID mice were implanted subcutaneously (s.c.) into the flank with 5×10^6 A549 cells resuspended in serum-free medium/Matrigel (1:1).

[4] = target: T2, human Axl (rhAxl-Fc chimera) (Homo sapiens, UniProt P30530); experiment: Biacore kinetic analysis (surface plasmon resonance) on immobilised rhAxl-Fc; format: binding
T2 construct: Soluble recombinant antigens corresponding to the extracellular domains of members of the human TAM receptor family; Fc; purchased R&D Systems 154-AL
Experimental: Kinetic analysis of murine MAb 10G5 interacting with rhAxl immobilized on the surface of the Biacore sensor chip. Overlay plots of sensograms for different antibody concentrations (0.3-166.7 nM for murine 10G5) are shown. The precise kinetic analysis was performed using BIA evaluation software and curve fitting according to 1:1 Langmuir binding model. […]
Affinity determination of anti-Axl antibody 10G5 was performed at 25° C. by surface plasmon resonance measurements using Biacore 3000 instrument (GE Healthcare). As a solid antigen-coated surface, a sensor chip CM5 with immobilized rhAxl-Fc chimera (R&D Systems, Cat. no. 154-AL) at density 190 RU was used.
For the kinetics measurements, different concentrations of anti-Axl antibodies (from 0.3 to 666.7 nM) in HBS-EP buffer (Biacore, Cat. no. BR-1001-88) were injected at flow rate of 30 μL/min with 3 min injection time followed by 5 min dissociation (buffer alone). After each cycle, the surface was regenerated by 30 sec injection of a regeneration solution (10 mM HCl, 1 M NaCl) at flow rate 50 μL/min.
The kinetic association (on-rate, kon) and dissociation (off-rate, koff) rates were calculated using BIAevaluation software and 1:1 Langmuir binding model. The equilibrium dissociation constant (KD) was calculated as the koff/kon ratio. The half-life (t1/2) of the formed antibody-antigen complexes was calculated as the ln 2/koff ratio. […]

[5] = agent alone, starved HeLa (antibodies 50 ug/ml, BGB324 0.2 uM, rhGas6 0.01 ug/ml)
[6] = rhGas6 0.01 ug/ml stimulation after 1 hour pre-incubation (antibodies 50 ug/ml, BGB324 0.2 uM), starved HeLa
[7] = rhAxl immobilized on Biacore sensor chip, 25° C., 1:1 Langmuir binding model

Molecule | Inhibition of 1H12-stimulated pAkt ([1]; FIG. 22B) | Absorbance @ 450 nm (pAxl reading) [2, 5] | Absorbance @ 450 nm (pAxl reading) [2, 6] | Effect of Gas6 bound first on subsequent binding of the antibody [3] | Effect of Gas6 bound first on subsequent binding of the antibody ([3]; listed as 1H21L1) | Inhibition of A549 tumour growth (A549 tumours) | KD lower than that of the chimeric antibody ([4]; comparison referring to Table 3) | Off-rate (koff) [4, 7] | On-rate (kon) [4, 7] | Stimulation of Akt phosphorylation ([1]; FIG. 22A, Gas6 versus cross-linking 1H12)
Nc1nc(Nc2ccc3c(c2)CC[C@@H](N2CCCC2)CC3)nn1-c1cc2c(nn1)-c1ccccc1CCC2 [BGB324, 1-(6,7-dihydro-5H-benzo[6,7]cyclohepta[1,2-c]pyridazin-3-yl)-N3-((7-(S)-pyrrolidin-1-yl)-6,7,8,9-tetrahydro-5H-benzo[7]annulene-2-yl)-1H-1,2,4-triazole-3,5-diamine, reference compound] | can be inhibited; also recorded: clear response | 0.039 | 0.045 |  |  |  |  |  |  | 
B1 |  |  | 0.055 | inhibited | blocks binding | around 25% | at least 50% | 0.000142 s⁻¹ | 2.07e+06 M⁻¹ s⁻¹ | 
B2 |  | 0.077 |  |  |  |  |  |  |  | weaker
